T1: cyno TIM-3-His6 (cynomolgus monkey)
T1 construct: Made in HEK293 cells; not shown: 6-His tag
T1 chain: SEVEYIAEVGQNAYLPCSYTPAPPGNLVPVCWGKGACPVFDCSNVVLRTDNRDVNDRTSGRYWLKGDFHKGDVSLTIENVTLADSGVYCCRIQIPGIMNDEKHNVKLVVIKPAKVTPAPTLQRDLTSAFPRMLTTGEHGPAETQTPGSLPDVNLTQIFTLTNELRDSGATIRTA


Assays:
[1] = molecular target: T2, human TIM-3 ECD with 6-His tag (hu TIM-3-His6) (human, UniProt Q8TDQ0 22-200); assay: SPR (Biacore)
T2 construct: Novoprotein Cat# C356; the entry includes the His tag; also called hTIM3-His; human TIM3-His6

[2] = molecular target: T1, cyno TIM-3-His6; assay: SPR (Biacore)
[3] = molecular target: T2, human TIM-3 ECD with 6-His tag (hu …); assay: SPR (Biacore), relative to 3903E11 (VH1.0, VL1.0)
[4] = molecular target: T3, human TIM-3 on huTIM-3-CHO-S cells (human, UniProt Q8TDQ0 22-202); assay: FACS on CHO-S-hTIM-3 cells
T3 construct: Membrane-anchored human TIM-3 ECD (NP_116171) stably expressed on CHO-S cells; also called CHO-S-hTIM3; CHO-S-hTIM-3; not shown: membrane anchor of the expression vector, not described

[5] = molecular target: T4, wild-type TIM-3 (hu TIM-3), HEK-expressed (human, UniProt Q8TDQ0 22-202, limits assumed); assay: SPR
T4 construct: Soluble protein of the mutagenesis study

| Binder | Kd [1] [nM] | Kd [2] [nM] | Human TIM3 KD Ratio to Parent [3] | MFI at 0.1 µg/ml [4] [MFI] | MFI at 1 µg/ml [4] [MFI] | MFI at 10 µg/ml [4] [MFI] | Kd [5] [nM] |
| --- | --- | --- | --- | --- | --- | --- | --- |
| 3903E11 (VH1.0, VL1.1) (antibody, human IgG1, lambda, Pair-wise combination of parental heavy chain and VL1.1-CL; IgG1 lambda) heavy: not shown light: QSALTQPRSVSGSPGQSVTISCTGTSSDVGGYNYVSWYQQHPGKAPKLMIFDVSKRPSGVPDRFSGSKSGNTASLTISGLQAEDEADYYCSSYADSVVFGGGTKVTVLGQPKAAPSVTLFPPSSEELQANKATLVCLISDFYPGAVTVAWKADSSPVKAGVETTTPSKQSNNKYAASSYLSLTPEQWKSHKSYSCQVTHEGSTVEKTVAPTECS | 2.7 | 6.5 | 0.78 | 148 | 1460 | 1870 | – |
| 3903E11 (VH1.0, VL1.2) (antibody, human IgG1, lambda, IgG1 lambda) heavy: not shown light: SYELTQPRSVSGSPGQSVTISCTGTSSDVGGYNYVSWYQQHPGKAPKLMIYDVSKRPSGVPDRFSGSKSGNTASLTISGLQAEDEADYYCSSYADSVVFGGGTKVTVLGQPKAAPSVTLFPPSSEELQANKATLVCLISDFYPGAVTVAWKADSSPVKAGVETTTPSKQSNNKYAASSYLSLTPEQWKSHKSYSCQVTHEGSTVEKTVAPTECS | 3.4 | 8.6 | – | 140 | 1340 | 1930 | – |
| 3903E11 (VH1.0, VL1.3) (antibody, IgG1, IgG1 lambda) heavy: not shown light: QSALTQPRSVSGSPGQSVTISCTGTSSDVGGYNYVSWYQQHPGKAPKLMIYDVSKRPSGVPDRFSGSKSGNTASLTISGLQAEDEADYYCSSYADSVVFGGGTKVTVLGQPKAAPSVTLFPPSSEELQANKATLVCLISDFYPGAVTVAWKADSSPVKAGVETTTPSKQSNNKYAASSYLSLTPEQWKSHKSYSCQVTHEGSTVEKTVAPTECS | 2.7 | 6.7 | – | 162 | 1540 | 1930 | – |
| 3903E11 (VH1.1, VL1.1) (antibody, human IgG1, lambda, IgG1 lambda) heavy: not shown light: QSALTQPRSVSGSPGQSVTISCTGTSSDVGGYNYVSWYQQHPGKAPKLMIFDVSKRPSGVPDRFSGSKSGNTASLTISGLQAEDEADYYCSSYADSVVFGGGTKVTVLGQPKAAPSVTLFPPSSEELQANKATLVCLISDFYPGAVTVAWKADSSPVKAGVETTTPSKQSNNKYAASSYLSLTPEQWKSHKSYSCQVTHEGSTVEKTVAPTECS | 7.6 | 17.9 | – | 154 | 1390 | – | – |
| 3903E11 (VH1.1, VL1.3) (antibody, IgG1, IgG1 lambda) heavy: not shown light: QSALTQPRSVSGSPGQSVTISCTGTSSDVGGYNYVSWYQQHPGKAPKLMIYDVSKRPSGVPDRFSGSKSGNTASLTISGLQAEDEADYYCSSYADSVVFGGGTKVTVLGQPKAAPSVTLFPPSSEELQANKATLVCLISDFYPGAVTVAWKADSSPVKAGVETTTPSKQSNNKYAASSYLSLTPEQWKSHKSYSCQVTHEGSTVEKTVAPTECS | 7.4 | 22.3 | – | – | – | – | – |
| 3903E11 (VH1.2, VL1.0) (antibody, human IgG1, lambda, IgG1 lambda) heavy: not shown light: SYELTQPRSVSGSPGQSVTISCTGTSSDVGGYNYVSWYQQHPGKAPKLMIFDVSKRPSGVPDRFSGSKSGNTASLTISGLQAEDEADYYCSSYADSVVFGGGTKVTVLGQPKAAPSVTLFPPSSEELQANKATLVCLISDFYPGAVTVAWKADSSPVKAGVETTTPSKQSNNKYAASSYLSLTPEQWKSHKSYSCQVTHEGSTVEKTVAPTECS | 2.2 | 5.5 | 0.62 | 156 | 1510 | 1950 | – |
| 3903E11 (VH1.2, VL1.1) (antibody, human IgG1, lambda, IgG1 lambda) heavy: not shown light: QSALTQPRSVSGSPGQSVTISCTGTSSDVGGYNYVSWYQQHPGKAPKLMIFDVSKRPSGVPDRFSGSKSGNTASLTISGLQAEDEADYYCSSYADSVVFGGGTKVTVLGQPKAAPSVTLFPPSSEELQANKATLVCLISDFYPGAVTVAWKADSSPVKAGVETTTPSKQSNNKYAASSYLSLTPEQWKSHKSYSCQVTHEGSTVEKTVAPTECS | 1.8 | 5.6 | 0.52 | 148 | 1400 | 1930 | – |
| 3903E11 (VH1.2, VL1.2) (antibody, human IgG1, lambda, IgG1 lambda) heavy: not shown light: SYELTQPRSVSGSPGQSVTISCTGTSSDVGGYNYVSWYQQHPGKAPKLMIYDVSKRPSGVPDRFSGSKSGNTASLTISGLQAEDEADYYCSSYADSVVFGGGTKVTVLGQPKAAPSVTLFPPSSEELQANKATLVCLISDFYPGAVTVAWKADSSPVKAGVETTTPSKQSNNKYAASSYLSLTPEQWKSHKSYSCQVTHEGSTVEKTVAPTECS | 1.6 | 6.3 | – | 114 | 1300 | 1900 | – |
| 3903E11 (VH1.3, VL1.0) (antibody, human IgG1, lambda, IgG1 lambda) heavy: not shown light: SYELTQPRSVSGSPGQSVTISCTGTSSDVGGYNYVSWYQQHPGKAPKLMIFDVSKRPSGVPDRFSGSKSGNTASLTISGLQAEDEADYYCSSYADSVVFGGGTKVTVLGQPKAAPSVTLFPPSSEELQANKATLVCLISDFYPGAVTVAWKADSSPVKAGVETTTPSKQSNNKYAASSYLSLTPEQWKSHKSYSCQVTHEGSTVEKTVAPTECS | 6.4 | 19.3 | – | 105 | 957 | – | – |
| 3903E11 (VH1.3, VL1.1) (antibody, human IgG1, lambda, IgG1 lambda) heavy: not shown light: QSALTQPRSVSGSPGQSVTISCTGTSSDVGGYNYVSWYQQHPGKAPKLMIFDVSKRPSGVPDRFSGSKSGNTASLTISGLQAEDEADYYCSSYADSVVFGGGTKVTVLGQPKAAPSVTLFPPSSEELQANKATLVCLISDFYPGAVTVAWKADSSPVKAGVETTTPSKQSNNKYAASSYLSLTPEQWKSHKSYSCQVTHEGSTVEKTVAPTECS | 4.7 | 19.5 | – | 105 | 1050 | – | – |
| 3903E11 (VH1.3, VL1.2) (antibody, human IgG1, lambda, IgG1 lambda) heavy: not shown light: SYELTQPRSVSGSPGQSVTISCTGTSSDVGGYNYVSWYQQHPGKAPKLMIYDVSKRPSGVPDRFSGSKSGNTASLTISGLQAEDEADYYCSSYADSVVFGGGTKVTVLGQPKAAPSVTLFPPSSEELQANKATLVCLISDFYPGAVTVAWKADSSPVKAGVETTTPSKQSNNKYAASSYLSLTPEQWKSHKSYSCQVTHEGSTVEKTVAPTECS | 6 | 19.9 | – | 87 | 958 | – | – |
| 3903E11 (VH1.3, VL1.3) (antibody, IgG1, IgG1 lambda) heavy: not shown light: QSALTQPRSVSGSPGQSVTISCTGTSSDVGGYNYVSWYQQHPGKAPKLMIYDVSKRPSGVPDRFSGSKSGNTASLTISGLQAEDEADYYCSSYADSVVFGGGTKVTVLGQPKAAPSVTLFPPSSEELQANKATLVCLISDFYPGAVTVAWKADSSPVKAGVETTTPSKQSNNKYAASSYLSLTPEQWKSHKSYSCQVTHEGSTVEKTVAPTECS | 4.5 | – | – | 82 | 1020 | – | – |
| 27.12E12 (antibody, V domains shown) VH: EVQLQQSGAELVRPGALVKLSCKASGFNIKDYYMYWMKQRPEQGLEWIGWIDPENVKTIYDPKFQGRATLTADTSSNTAYLQLSSLTSEDTAVYYCTRDFGYVGFFDVWGAGTTVTVSS VL: DIVMTQSQKFMSTSVGDRVSVNCKASQNVGTNVVWYQQKPGQSPKALIYSASYRYSGVPDRFTGSGSGTDFTLTISTVQSEDLAEYFCQQYNSYPLTFGGGTKLEIKR | – | – | – | – | – | – | 51.6 |

— patent US20220081480A1 (Merck KGaA, published 2022)
